Test results from patent US20260242478A1 (published 2026).

B1: Phage-1585 (peptide)
peptide: TCAAGASWNWPACE
notes: Read from the row with '-' = Peptide-92 residue: TCAAGASWNWPACE; also called Peptide-92 library clone

target: T1, Anti-CD28 Fab (SEQ ID NOs: 696, 697); experiment: phage binding ELISA; Fab-coated wells pre-incubated with CD28 antigen as competitor, phage detected with anti-M13-HRP
T1 construct: In the phage ELISA the Fab was biotinylated and captured on neutravidin coated plates
T1 sequence (VH, as listed by the source, chain 1 of 2): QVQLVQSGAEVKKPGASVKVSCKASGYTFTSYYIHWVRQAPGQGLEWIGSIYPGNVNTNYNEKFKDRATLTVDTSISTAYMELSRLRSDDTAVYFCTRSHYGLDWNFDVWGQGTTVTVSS
T1 sequence (VL, as listed by the source, chain 2 of 2): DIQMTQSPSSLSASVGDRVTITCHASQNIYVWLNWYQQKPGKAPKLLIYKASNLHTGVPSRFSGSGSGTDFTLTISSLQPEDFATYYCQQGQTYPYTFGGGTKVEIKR
Experimental: (§1) Clonal phage were harvested as crude supematants and screened via standard ELISAs. […] Prior to the addition of clonal phage, wells were incubated with blocking buffer and CD28 antigen or blocking buffer alone. Without washing or aspirating, clonal phage supematants were then added to the wells and incubated for a short time. Wells were then washed followed by detection of bound phage using a horse radish conjugated anti-M13 antibody. Clonal phage of interest were then sent for sequence analysis.

Binder	Anti-CD28 Fab signal in the presence of CD28
TCAAGASWDWPFCF (Peptide-92 library clone) [Phage-1684]	0.08
RCKAGVPYKWPMCL (Peptide-92 library clone) [Phage-1680]	0.06
ECGWEPGQHWRVCF (Peptide-92 library clone) [Phage-1685]	0.06
TCSAGAMYNWPECF (Peptide-92 library clone) [Phage-1676]	0.08
WCSAVFSYQWPPCF (Peptide-92 library clone) [Phage-1689]	0.06
TCAAGATYEWPSCI (Peptide-92 library clone) [Phage-1681]	0.09
LCEAGFNYDWPRCL (Peptide-92 library clone) [Phage-1683]	0.07
QCAAGFSYTWPECY (Peptide-92 library clone) [Phage-1678]	0.11
TCAAGAKYVWPLCF (Peptide-92 library clone) [Phage-1682]	0.12
SCAAGATYKWPACF (Peptide-92 library clone) [Phage-1687]	0.06
SCSAGAMWLWPECF (Peptide-92 library clone) [Phage-1688]	0.06
TCAAGATWVWPTCF (Peptide-92 library clone) [Phage-1675]	0.07
TCSAGAMYSWPLCI (Peptide-92 library clone) [Phage-1677]	0.08
WCAAFFHYPWPQCF (Peptide-92 library clone) [Phage-1679]	0.05
SCAAGATYEWPTCL (Peptide-92 library clone) [Phage-1686]	0.07

target: Anti-CD28 Fab (SEQ ID NOs: 696, 697); experiment: phage binding ELISA; Fab-coated wells pre-incubated with saturating CD28 antigen as competitor, anti-M13 HRP detection
Target sequence in this assay (VH, as listed by the source, chain 1 of 2): as the sequence (VH, as listed by the source, chain 1 of 2) above
Target sequence in this assay (VL, as listed by the source, chain 2 of 2): as the sequence (VL, as listed by the source, chain 2 of 2) above
Experimental: (§2) Clonal phage were harvested as crude supematants and screened via standard ELISAs. […] Prior to the addition of clonal phage, wells were incubated with blocking buffer and CD28 antigen or blocking buffer alone. Without washing or aspirating, clonal phage supematants were then added to the wells and incubated for a short time. Wells were then washed followed by detection of bound phage using a horse radish conjugated anti-M13 antibody.

Binder	Anti-CD28 Fab signal in the presence of CD28
LCAAGFMYEWPLCF (also called Peptide-92 library clone) [Phage-1590]	0.06
LCSAGFLFQWSTCL (also called Peptide-92 library clone) [Phage-1580]	0.06
MCAAGAAWAWPLCL (also called Peptide-92 library clone) [Phage-1588]	0.07
PCSAGVTYAWLYCV (also called Peptide-92 library clone) [Phage-1587]	0.06
B1	0.07
LCAAGAHYSWPACF (also called Peptide-92 library clone) [Phage-1586]	0.09
PCAAGAMWPWPVCL (also called Peptide-92 library clone) [Phage-1583]	0.06
RCAAGFHYSWPNCF (also called Peptide-92 library clone) [Phage-1581]	0.06
GCAAGASYPWPACL (also called Peptide-92 library clone) [Phage-1582]	0.06
TCSAGATYSWPACL (also called Peptide-92 library clone) [Phage-1584]	0.06
TCAAGAQFAWPLCL (also called Peptide-92 library clone) [Phage-1579]	0.07
TCAAGASYPWPLCV (also called Peptide-92 library clone) [Phage-1589]	0.06

target: T1, Anti-CD28 Fab (SEQ ID NOs: 696, 697); experiment: phage binding ELISA; biotinylated anti-CD28 Fab on neutravidin plate, clonal phage detected with anti-M13-HRP;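 also: crude clonal phage supernatants added briefly to wells preincubated in blocking buffer with or without CD28 antigen, then washed before detection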
Experimental: as §1

Binder	Anti-CD28 Fab (SEQ ID NOs: 696, 697) signal
TCAAGASWDWPFCF (Peptide-92 library clone) [Phage-1684]	0.82
RCKAGVPYKWPMCL (Peptide-92 library clone) [Phage-1680]	0.87
ECGWEPGQHWRVCF (Peptide-92 library clone) [Phage-1685]	0.82
TCSAGAMYNWPECF (Peptide-92 library clone) [Phage-1676]	0.92
WCSAVFSYQWPPCF (Peptide-92 library clone) [Phage-1689]	0.78
TCAAGATYEWPSCI (Peptide-92 library clone) [Phage-1681]	0.86
LCEAGFNYDWPRCL (Peptide-92 library clone) [Phage-1683]	0.85
QCAAGFSYTWPECY (Peptide-92 library clone) [Phage-1678]	0.9
TCAAGAKYVWPLCF (Peptide-92 library clone) [Phage-1682]	0.85
SCAAGATYKWPACF (Peptide-92 library clone) [Phage-1687]	0.8
SCSAGAMWLWPECF (Peptide-92 library clone) [Phage-1688]	0.8
TCAAGATWVWPTCF (Peptide-92 library clone) [Phage-1675]	0.92
TCSAGAMYSWPLCI (Peptide-92 library clone) [Phage-1677]	0.91
WCAAFFHYPWPQCF (Peptide-92 library clone) [Phage-1679]	0.87
SCAAGATYEWPTCL (Peptide-92 library clone) [Phage-1686]	0.81

target: Anti-CD28 Fab (SEQ ID NOs: 696, 697); experiment: phage binding ELISA; biotinylated anti-CD28 Fab on neutravidin plate, clonal phage supernatant, anti-M13 HRP detection;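 also: wells pretreated with blocking buffer, either plus or minus CD28 antigen, then given crude phage supernatant briefly without washing in between, then washed before anti-M13 HRP readout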
Target sequence in this assay (VH, as listed by the source, chain 1 of 2): as the sequence (VH, as listed by the source, chain 1 of 2) above
Target sequence in this assay (VL, as listed by the source, chain 2 of 2): as the sequence (VL, as listed by the source, chain 2 of 2) above
Experimental: as §2

Binder	Anti-CD28 Fab (SEQ ID NOs: 696, 697) signal
LCAAGFMYEWPLCF (also called Peptide-92 library clone) [Phage-1590]	1.4
LCSAGFLFQWSTCL (also called Peptide-92 library clone) [Phage-1580]	1.41
MCAAGAAWAWPLCL (also called Peptide-92 library clone) [Phage-1588]	1.4
PCSAGVTYAWLYCV (also called Peptide-92 library clone) [Phage-1587]	1.41
B1	1.41
LCAAGAHYSWPACF (also called Peptide-92 library clone) [Phage-1586]	1.41
PCAAGAMWPWPVCL (also called Peptide-92 library clone) [Phage-1583]	1.41
RCAAGFHYSWPNCF (also called Peptide-92 library clone) [Phage-1581]	1.41
GCAAGASYPWPACL (also called Peptide-92 library clone) [Phage-1582]	1.41
TCSAGATYSWPACL (also called Peptide-92 library clone) [Phage-1584]	1.41
TCAAGAQFAWPLCL (also called Peptide-92 library clone) [Phage-1579]	1.41
TCAAGASYPWPLCV (also called Peptide-92 library clone) [Phage-1589]	1.4

target: T2, Anti-PSMA Fab (SEQ ID NOs: 19, 20); experiment: phage binding ELISA on PSMA Fab coated plates; competitor: PSMA antigen
T2 construct: Biotinylated Fab captured on neutravidin coated plates in the phage ELISA; also called 006 PSMA Fab
Experimental: (§3) Clonal phage were harvested as crude supernatants and screened via standard ELISAs. […] Prior to the addition of clonal phage. wells were incubated with blocking buffer and PSMA antigen or blocking buffer alone. Without washing or aspirating, clonal phage supernatants were then added to the wells and incubated for a short time. Wells were then washed followed by detection of bound phage using a horse radish conjugated anti-M13 antibody.

Binder	Anti-PSMA Fab signal in the presence of PSMA
FVPLCKPAWMCSFV [Phage-1768]	0.111
FEKLCVPKWMCEGI (also called Peptide-220) [Phage-1770]	0.0601
VLKWCRPAWMCEVL [Phage-1766]	0.219
VGKLCVPEWMCVGL [Phage-1767]	0.063
WEKLCTPAWMCVGF [Phage-1764]	0.105
HVKLCKPAWMCQGL [Phage-1769]	0.0831
LCEWWTSHVDAWCA [Phage-1763]	0.184
HCKFHDYHSWYVCY [Phage-1762]	0.0994
LEKLCIPAWMCEWL [Phage-1765]	0.184
HCEFHDYQSCDVLY [Phage-1761]	0.126
LCQWYPKFHWMDCD (also called Peptide-210) [Phage-1760]	0.0695

target: T2, Anti-PSMA Fab (SEQ ID NOs: 19, 20); experiment: phage binding ELISA; clonal phage on biotinylated PSMA Fab captured on neutravidin plates, anti-M13 HRP detection
Experimental: as §3

Binder	Anti-PSMA Fab (SEQ ID NOs: 19, 20) signal
FVPLCKPAWMCSFV [Phage-1768]	2.2
FEKLCVPKWMCEGI (also called Peptide-220) [Phage-1770]	2.17
VLKWCRPAWMCEVL [Phage-1766]	2.38
VGKLCVPEWMCVGL [Phage-1767]	2.25
WEKLCTPAWMCVGF [Phage-1764]	2.44
HVKLCKPAWMCQGL [Phage-1769]	2.18
LCEWWTSHVDAWCA [Phage-1763]	0.575
HCKFHDYHSWYVCY [Phage-1762]	2.31
LEKLCIPAWMCEWL [Phage-1765]	2.4
HCEFHDYQSCDVLY [Phage-1761]	1.89
LCQWYPKFHWMDCD (also called Peptide-210) [Phage-1760]	0.611
